Experiment [1] concerns the target T1, wild-type human PD-1 recombinant protein (PD-1/His or PD-1/Fc, not said which) (human, UniProt Q15116 21-168).
T1 construct: also called WT PD-1
Kind of experiment: ELISA on coated recombinant PD-1. Background: In an ELISA, binding on a coated surface is turned into a signal by an enzyme label.

Experiment [2] concerns the target T2, human PD-1 expressed on cells (human, UniProt Q15116 25-288).
T2 construct: whole, on cells; also called HuT78/PD-1; NK92MI/PD-1
Kind of experiment: FACS on PD-1-expressing cells, goat anti-human IgG detection.

In experiment [3] the target is T2, human PD-1 expressed on cells. Kind of experiment: cell-based or functional assay.
Experiment [4] addresses P3Z chimeric PD-1 receptor (human). In words: cell-based or functional assay.
The target in experiment [5] is T3, human FcγRIIIA (F158) (human, UniProt P08637 17-254).
T3 construct: whole, on cells
T3 sequence (P08637 17-254): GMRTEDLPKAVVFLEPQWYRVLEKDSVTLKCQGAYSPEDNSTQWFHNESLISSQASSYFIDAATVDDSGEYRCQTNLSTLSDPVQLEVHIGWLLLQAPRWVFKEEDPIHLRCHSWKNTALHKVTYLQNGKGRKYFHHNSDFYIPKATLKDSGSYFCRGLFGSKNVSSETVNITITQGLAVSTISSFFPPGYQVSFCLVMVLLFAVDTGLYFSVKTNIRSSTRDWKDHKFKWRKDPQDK
In words: flow cytometry, FcγR+ HEK293 cells. In general terms: Flow cytometry measures light scatter and fluorescence of single cells or particles in a stream.
Procedure: (§1) Binding of various IgG4 mutants to FcγRs was determined by flow cytometry. In brief, a series of HEK293 transfectants expressing human FcγRs were established. These transfectants expressed FcγRI, FcγRIIA, FcγRIIB or FcγRIIIA Multi-subunit FcγRs (i.e., FcγR1 and FcγRIIIA) were co-expressed with FcRγ. Polymorphic variants (i.e., FcγRIIA H131 and R131, FcγRIIIA F158 and V158) were also included.

In a further experiment the target is T4, human FcγRIIA (H131) (human, UniProt P12318 34-317).
T4 construct: whole, on cells
T4 sequence (looked up): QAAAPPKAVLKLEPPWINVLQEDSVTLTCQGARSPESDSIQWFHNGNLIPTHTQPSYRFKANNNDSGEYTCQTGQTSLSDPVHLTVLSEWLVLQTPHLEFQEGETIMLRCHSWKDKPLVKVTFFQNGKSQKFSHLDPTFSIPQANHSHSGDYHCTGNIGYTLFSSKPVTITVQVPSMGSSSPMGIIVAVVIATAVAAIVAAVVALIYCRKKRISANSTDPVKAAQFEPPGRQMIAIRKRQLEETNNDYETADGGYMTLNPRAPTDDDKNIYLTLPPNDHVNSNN
Kind of experiment: flow cytometry, FcγR+ HEK293 cells.

The target in a further experiment is T5, human FcγRIIA (R131) (human, UniProt P12318 34-317).
T5 construct: whole, on cells
T5 sequence (looked up): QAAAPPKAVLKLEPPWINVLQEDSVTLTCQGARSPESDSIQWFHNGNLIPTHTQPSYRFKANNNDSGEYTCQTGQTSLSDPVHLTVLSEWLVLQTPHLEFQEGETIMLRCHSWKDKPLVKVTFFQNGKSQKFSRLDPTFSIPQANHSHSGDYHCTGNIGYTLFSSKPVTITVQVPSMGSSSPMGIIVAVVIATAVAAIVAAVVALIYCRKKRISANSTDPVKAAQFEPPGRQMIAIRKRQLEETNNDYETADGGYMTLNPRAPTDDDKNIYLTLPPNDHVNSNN
In words: flow cytometry, FcγR+ HEK293 cells.

The target of experiment [6] is T3, human FcγRIIIA (F158). Kind of experiment: flow cytometry, FcγR+ HEK293 cells. This is another data set of the same source.
Procedure: as §1
The target of a further experiment is T6, human FcγRI (human, UniProt P12314 16-374).
T6 construct: whole, on cells; also called FcγR1
T6 sequence (P12314 16-374): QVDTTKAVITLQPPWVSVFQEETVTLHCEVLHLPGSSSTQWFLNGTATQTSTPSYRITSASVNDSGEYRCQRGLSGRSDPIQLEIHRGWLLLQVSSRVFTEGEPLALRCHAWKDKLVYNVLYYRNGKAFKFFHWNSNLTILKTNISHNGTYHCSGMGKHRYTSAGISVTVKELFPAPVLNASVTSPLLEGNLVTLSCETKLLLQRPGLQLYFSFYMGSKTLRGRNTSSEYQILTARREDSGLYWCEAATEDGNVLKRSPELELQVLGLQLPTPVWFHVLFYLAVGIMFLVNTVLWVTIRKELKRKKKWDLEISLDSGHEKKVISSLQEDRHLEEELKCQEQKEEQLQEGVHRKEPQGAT
In words: flow cytometry, FcγR+ HEK293 cells.

For a further experiment, the target named is T7, human FcγRIIIA (V158) (human, UniProt P08637 17-254).
T7 construct: whole, on cells; also called CD16 (V158 allele)
T7 sequence (P08637 17-254 F176V limits assumed): as the sequence (P08637 17-254) above, with F160V counted along it
Kind of experiment: flow cytometry, FcγR+ HEK293 cells.

T2 sequence (Q15116 25-288): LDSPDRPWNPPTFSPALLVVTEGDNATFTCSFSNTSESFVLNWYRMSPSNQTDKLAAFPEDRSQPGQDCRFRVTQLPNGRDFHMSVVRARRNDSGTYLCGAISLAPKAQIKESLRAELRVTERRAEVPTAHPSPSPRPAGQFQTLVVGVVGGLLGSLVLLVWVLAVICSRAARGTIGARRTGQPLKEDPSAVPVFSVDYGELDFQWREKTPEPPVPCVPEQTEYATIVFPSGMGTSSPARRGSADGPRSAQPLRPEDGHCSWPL
P3Z chimeric PD-1 receptor (human), sequence (chain, as listed by the source mutant limits assumed): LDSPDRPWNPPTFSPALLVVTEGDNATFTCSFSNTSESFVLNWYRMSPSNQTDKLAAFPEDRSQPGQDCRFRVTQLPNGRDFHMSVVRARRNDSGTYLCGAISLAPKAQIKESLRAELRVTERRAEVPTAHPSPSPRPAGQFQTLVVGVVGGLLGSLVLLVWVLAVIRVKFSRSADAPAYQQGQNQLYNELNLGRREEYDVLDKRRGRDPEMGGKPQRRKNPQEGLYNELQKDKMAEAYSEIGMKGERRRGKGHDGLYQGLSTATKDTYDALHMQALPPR
T1 sequence (Q15116 21-168 limits assumed): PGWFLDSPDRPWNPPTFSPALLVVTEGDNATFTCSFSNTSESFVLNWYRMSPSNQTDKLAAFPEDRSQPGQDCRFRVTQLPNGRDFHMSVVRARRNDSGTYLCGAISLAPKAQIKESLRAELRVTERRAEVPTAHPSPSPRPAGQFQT
Procedure for human FcγRIIA (H131): as §1
Procedure for human FcγRIIA (R131): as §1
Procedure for human FcγRIIIA (V158): as §1

B1: hu317-4B2 (antibody, V domains shown)
VH: QVQLQESGPGLVKPSETLSLTCTVSGFSLTSYGVHWIRQPPGKGLEWIGVIYAGGSTNYNPSLKSRVTISKDTSKNQFSLKLSSVTAADTAVYYCARAYGNYWYIDVWGQGTTVTVSS
VL: DIVMTQSPDSLAVSLGERATINCKSSESVSNDVAWYQQKPGQPPKLLINYAFHRFTGVPDRFSGSGYGTDFTLTISSLQAEDVAVYYCHQAYSSPYTFGQGTKLEIK
notes: Humanized mAb
Regarding B1, the EC50 (commonly the concentration at which the effect is half-maximal) in [1] was found to be 0.066 µg/mL.

B2: ch317 (antibody, human IgG2, V domains shown, not shown: a dimerising Fc or GST)
VH: QVQLKESGPGLVAPSKNLSITCTVSGFSLTSYGVHWIRQPPGKGLEWLGVIWAGGSTNYNSALMSRLSISKDNSRSQVFLRMNSLQTDDTAMYYCARAYGNYWYIDVWGAGTTVTVSS
VL: DIVMTQTPKFLLVSAGDRVTITCKASQSVSNDVAWYQQKPGQSPKLLINYAFHRFTGVPDRFTGSGYGTDFIFTISTVQAEDLAVYFCHQAYSSPYTFGGGTKLEMKR
notes: domain: Ig kappa C-region; Murine VH and Vκ of mu317 on human IgG2 / kappa
On to B2, for which the concentration giving a half-maximal response (EC50) in experiment [2] turned out to be 0.36 µg/mL. Also, in experiment [3], the “Assay-1 IL-2 release, EC50 (HuT78/PD-1 + HEK293/OS8/PD-L1)” value is 0.08 µg/mL and the “Assay-1 IL-2 release, Top line (HuT78/PD-1 + HEK293/OS8/PD-L1)” value is 294 pg/mL. Further, in experiment [4], the “Assay-2 IL-2 release, IC50 (HuT78/P3Z + HEK293/PD-L1)” value amounted to 0.1 µg/mL and the “Assay-2 IL-2 release, Max inhibition (HuT78/P3Z + HEK293/PD-L1)” value is 99%.

B3: hu317-1/IgG4mt6 (antibody)
heavy: QVQLQESGPGLVKPSETLSLTCTVSGFSLTSYGVHWIRQPPGKGLEWLGVIWAGGSTNYNPSLKSRLTISKDNSKSQVSLKMSSVTAADTAVYYCARAYGNYWYIDVWGQGTTVTVSSASTKGPSVFPLAPCSRSTSESTAALGCLVKDYFPEPVTVSWNSGALTSGVHTFPAVLQSSGLYSLSSVVTVPSSSLGTKTYTCNVDHKPSNTKVDKRVESKYGPPCPPCPAPPVAGGPSVFLFPPKPKDTLMISRTPEVTCVVVAVSQEDPEVQFNWYVDGVEVHNAKTKPREEQFNSTYRVVSVLTVLHQDWLNGKEYKCKVSNKGLPSSIEKTISKAKGQPREPQVYTLPPSQEEMTKNQVSLTCLVKGFYPSDIAVEWESNGQPENNYKTTPPVLDSDGSFFLYSRLTVDKSRWQEGNVFSCSVMHEALHNHYTQKSLSLSLGK
VL: DIVMTQSPDSLAVSLGERATINCKASQSVSNDVAWYQQKPGQPPKLLINYAFHRFTGVPDRFSGSGYGTDFTLTISSLQAEDVAVYYCHQAYSSPYTFGGGTKLEIK
notes: Light chain constant region not restated for this format; copies: 2 + 2
Regarding B3, the MFI with human FcγRIIIA (F158) [5] worked out at 0.9 MFI; with human FcγRIIA (H131) it was 1 MFI; with human FcγRIIA (R131), 0.8 MFI.

B4: hu317-4B6/IgG4mt10 (antibody)
heavy: QVQLQESGPGLVKPSETLSLTCTVSGFSLTSYGVHWIRQPPGKGLEWIGVIYADGSTNYNPSLKSRVTISKDTSKNQVSLKLSSVTAADTAVYYCARAYGNYWYIDVWGQGTTVTVSSASTKGPSVFPLAPCSRSTSESTAALGCLVKDYFPEPVTVSWNSGALTSGVHTFPAVLQSSGLYSLSSVVTVPSSSLGTKTYTCNVDHKPSNTKVDKRVESKYGPPCPPCPAPPVAGGPSVFLFPPKPKDTLMISRTPEVTCVVVAVSQEDPEVQFNWYVDGVEVHNAKTKPREEQFNSTYRVVSVLTVVHQDWLNGKEYKCKVSNKGLPSSIEKTISKAKGQPREPQVYTLPPSQEEMTKNQVSLTCLVKGFYPSDIAVEWESNGQPENNYKTTPPVLDSDGSFFLYSKLTVDKSRWQEGNVFSCSVMHEALHNHYTQKSLSLSLGK
VL: DIVMTQSPDSLAVSLGERATINCKSSESVSNDVAWYQQKPGQPPKLLINYAFHRFTGVPDRFSGSGYGTDFTLTISSLQAEDVAVYYCHQAYSSPYTFGQGTKLEIK
notes: as for B3
On to B4, for which the binding result with human FcγRIIIA (F158) [6], with human FcγRI and in the experiment with human FcγRIIIA (V158) was “no binding” throughout.

(Values after US8735553 (BEIGENE SWITZERLAND, dated 2014).)
